B1: HESX1 (parent)
chain: QKKDCVPLMKPHRPWADTCSSSGK

Variants of: B1
Assay: protein stability index of a GFP-peptide fusion (GPS, HEK-293T) (PSI 1-6); higher = more stable
Conditions: c terminus: a fixed tail appended
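Further: lentivirally expressed fusions sorted by FACS into six bins by GFP to DsRed ratio, PSI derived from sequencing read proportions per bin multiplied by bin number.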

Protein stability index: each site, then its substitutions
H12: D 4.49; T 3.08; M 3.18; S 4.05; Q 3.94; E 4.44; N 3.77; C 3.42; Y 3.29; G 3.98; K 3.73; P 4.01; A 4; R 4.82; L 3.91; F 3.25; I 3.07; W 2.29
P11: Y 2.55; R 3.46; M 3.83; A 3.29; H 3.51; E 3.1; N 3.48; Q 2.74; L 2.85; W 3.16; D 3.96; G 3.87; S 3.64; I 3.42; F 3.03; K 3.42; T 4.68
W15: A 4.62; F 3.47; C 4.02; T 5.26; E 5.37; N 4.79; S 4.8; K 4.92; Y 4.39; D 4.81; G 4.96; M 4.57; I 4.26; P 4.35; H 4.64; L 4.66; Q 4.79
C19: L 3.13; I 2.45; E 4.32; F 2.66; K 4.47; A 4.07; N 4.83; H 3.77; M 4.19; D 3.9
P14: L 3.06; W 2.96; Y 2.98; Q 3.88; N 2.72; A 2.52; I 3.26; K 2.81; M 2.84; V 2.23; G 3.96; H 3.95; E 4.12; C 2.36; S 3.1; F 3.1; D 3.21
D17: R 3.46; F 3.07; H 3.71; E 3.53; Q 3.89; N 3.22; I 2.57; V 2.91; S 3.74; A 3.48; G 3.45; P 3.6; K 3.91; M 3.36; C 2.81; Y 3.17; W 2.78; T 3.06
A16: I 3.34; H 3.98; M 4.02; C 3.72; E 3.9; S 3.72; T 3.76; R 3.45; P 3.96; D 4.66; W 3.39; F 3.44; K 3.96; N 4.2; L 3.75; V 2.46; Q 4; Y 3.49; G 3.57
T18: P 4.02; Q 3.36; A 3.41; C 3.15; F 2.35; N 3.75; D 3.96; I 1.57; E 4.29; M 2.44; K 4.01; S 3.28; G 3.69; V 1.9; H 2.13; Y 2.25; W 2.94; R 2.69; L 2.24
R13: H 3.6; L 3.4; N 4.15; D 4.11; M 3.06; W 3.4; P 3.25; F 3.75; C 3.26; I 3.66; V 3.11; E 4.97; G 4.21; K 3.5; T 3.33; Y 3.64; Q 4.18
K10: G 3.47; R 3.48; W 2.52; Q 4.19; N 4.25; M 2.92; T 3.35; S 3.74; F 3.21; D 4.83; Y 3.45; L 3.58; V 3.94; I 3.7; H 3.79

Reference: the supplement of paper PMC10567573
